# In the supplement of paper PMC10724198:
# ± gives the standard deviation of the averaged measurements.
# Tested on: Saccharomyces cerevisiae
# Assay: protein stability index of tFT-peptide fusion (C-terminal peptide) (PSI (0-1 scale)); higher = more stable (slower turnover)
# Settings: genetic background: wild type; temperature: 30 C
# 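Further: PSI is a weighted mean of sequencing reads over stability bins, variants kept only with over 10 reads, mCherry proximal and sfGFP distal, peptide attached via GGGS linker.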
row,Sequence,protein stability index
1,EVPLGLIRLPSV,0.695 ± 0.06
2,NSRDCILQARET,0.713 ± 0.012
3,VWGVFASPVVYR,0.712 ± 0.049
4,YRLDTFCPHFSN,0.752 ± 0.13
5,YRRDVGAARVLP,0.67 ± 0.021
6,CESEAGGGVTLC,0.669 ± 0.025
7,KGVLTKRAVPST,0.703 ± 0.025
8,WCVRWGVVGPGL,0.634 ± 0.03
9,GGCAGGGGVVVR,0.6851 ± 0.0046
10,PPPRLDTGAAQP,0.665 ± 0.0097
11,GGSGGAVEERGG,0.6573 ± 0.0013
12,FRFLFSPSRPPF,0.633 ± 0.05
13,ASRSGVPGVRVG,0.685 ± 0.027
14,TALKNLPSVSSV,0.712 ± 0.1
15,ELLASVSVSSRF,0.6276 ± 0.0044
16,PSGGSQSLGRLG,0.634 ± 0.034
17,RRAGHYHYSVRL,0.704 ± 0.053
18,DACIVRFRDTYL,0.688 ± 0.018
19,LPLPSTYHHISK,0.68 ± 0.063
20,GCGMCDPRCEHY,0.743 ± 0.083
21,MSPSVFLPPLPL,0.662 ± 0.09
22,SVRSVFVFGVIK,0.664 ± 0.017
23,PMPRHVPRPTTP,0.674 ± 0.06
24,PPPAPPLILVLP,0.539 ± 0.0037
25,GGRGVVVVQGAG,0.6978 ± 0.0013
26,TRRLILSPIRHF,0.636 ± 0.015

row,Sequence,protein stability index
1,VFLRGWGRSEGG,0.679 ± 0.012
2,PPPPPPLPLLSI,0.668 ± 0.038
3,YPPLPVRPLVLL,0.515 ± 0.0056
4,GGRVAGSMGGGG,0.719 ± 0.056
5,RAMWAGKGGDGW,0.738 ± 0.086
6,VFSLLRCLFRPP,0.669 ± 0.012
7,MKPPRGRIVITG,0.626 ± 0.02
8,VSLLIPVGVYPR,0.667 ± 0.015
9,SAWGLVLVGSWG,0.602 ± 0.011
10,KPQFNLQYTVKI,0.616 ± 0.025
11,HSYMFIRNTIRI,0.6281 ± 0.0031
12,ASSMLPVCLVTL,0.588 ± 0.056
13,GGAYRCFSIQRS,0.687 ± 0.0078
14,CRVAFGFMSRFV,0.729 ± 0.067
15,YSAPFRIPLSLR,0.631 ± 0.034
16,PPPPPPLPHSPP,0.647 ± 0.095
17,RDGSNSNGKKKK,0.6 ± 0.051
18,LKFRETHIRNHP,0.701 ± 0.05
19,PLPHSPPPPPPT,0.736 ± 0.024
20,IARENLNRSRFS,0.6602 ± 0.0056
21,SPPPPPFCPLPA,0.646 ± 0.014
22,KLKIDKKKNTFE,0.728 ± 0.047
23,AFVLGSWSWWRA,0.715 ± 0.015
24,FSLPRHFRLYRR,0.713 ± 0.036
25,IAEFRRDKIVKR,0.706 ± 0.07
26,SPGPTLLSPPSP,0.691 ± 0.017

row,Sequence,protein stability index
1,CVATTHASHTSP,0.694 ± 0.033
2,ELWGGGFLLMLG,0.599 ± 0.021
3,RFSPARPASPPP,0.687 ± 0.036
4,GGCGGVCGACVV,0.695 ± 0.011
5,PPQLHVALPHPE,0.852 ± 0.2
6,RLVAGETWAMSR,0.674 ± 0.0045
7,VVCKVLVTGIFD,0.604 ± 0.0062
8,IKSKERLKKRQS,0.6679 ± 0.00067
9,YFAQCLDFFSLV,0.663 ± 0.019
10,LPLCSPPAPPSS,0.666 ± 0.026
11,YPPRLPSILPFP,0.696 ± 0.046
12,VPPDTAPPPPRR,0.6994 ± 0.0055
13,ESIEVGTGDWVG,0.653 ± 0.013
14,FLASPHPPGLSP,0.693 ± 0.033
15,PVPPFDGLVPAL,0.728 ± 0.089
16,VAVGIVGGWWGV,0.843 ± 0.11
17,EGVGLAETAGDD,0.684 ± 0.039
18,KKNICIKVENSY,0.676 ± 0.031
19,LVSGFRYPFSCL,0.611 ± 0.037
20,IKNIKKKKSKTE,0.702 ± 0.065
21,PLLPRTPPLSAT,0.671 ± 0.0079
22,KKVKKKRSKKNT,0.66 ± 0.17
23,ARSSHVLQRSKV,0.634 ± 0.018
24,PNRKCSGTFAAS,0.65573 ± 0.00064
25,KIKTNLRQKTKN,0.654 ± 0.016
26,NIPESSVSKLSK,0.678 ± 0.026

row,Sequence,protein stability index
1,PALKQEGRPEHS,0.6942 ± 0.0053
2,APRKTPPHPPPS,0.689 ± 0.06
3,VFVPPPPSPSSL,0.683 ± 0.01
4,CSVDSRLSMLVL,0.605 ± 0.044
5,SIQHGRFLTLSV,0.585 ± 0.0093
6,GVDKQSGTRNIK,0.704 ± 0.0068
7,RWLEIQKRRGRI,0.643 ± 0.1
8,STPPPRSLPSPP,0.716 ± 0.045
9,SGFKRWSDVGDY,0.6815 ± 0.0057
10,GCGGGGGAWKGV,0.751 ± 0.056
11,PVRDGFSLCFVL,0.761 ± 0.14
12,WSGREGRGEWGW,0.791 ± 0.024
13,RLGGRDCWGPWG,0.693 ± 0.017
14,TAFGLMRQPCMG,0.657 ± 0.052
15,RMEGCRLSLGVP,0.63 ± 0.075
16,PPSAPPSPPHPP,0.612 ± 0.011
17,HRYRWPGLNSRL,0.837 ± 0.12
18,LPFRLARLSQEG,0.849 ± 0.016
19,HSLRPPPPPAPT,0.7146 ± 0.0045
20,RYNRMVERALKY,0.677 ± 0.027
21,PPSPLAPPCSPR,0.6719 ± 0.0056
22,QYQDRHIDRSGR,0.657 ± 0.078
23,PLAPPPLSPSPI,0.7873 ± 0.0059
24,DSVSLPYVSRPL,0.768 ± 0.041
25,VSCGVSEGDVVC,0.675 ± 0.031
26,LVVSLGLFLLRH,0.549 ± 0.045

row,Sequence,protein stability index
1,ALEFRDASLPVQ,0.682 ± 0.068
2,TDISPRFVSVYL,0.656 ± 0.017
3,PAHPSDIGAAAP,0.675 ± 0.042
4,KVEVKRMKKEVK,0.668 ± 0.014
5,MSGRGPYPYSPL,0.7465 ± 0.0034
6,PPPPPPRPPLRP,0.727 ± 0.012
7,LWGGAGAGYWVG,0.727 ± 0.033
8,PPSLPLPLPSAP,0.683 ± 0.015
9,LLCFRLFPALTP,0.6228 ± 0.0057
10,PPATQSPPLPPC,0.766 ± 0.037
11,RGWKDQYIDADR,0.689 ± 0.012
12,AFGAPVVRHATF,0.723 ± 0.02
13,GGMAWGPVCGAG,0.6906 ± 0.0018
14,NTRIKGERNILH,0.702 ± 0.026
15,SAVWWDRLDIRK,0.687 ± 0.012
16,GGWCGGGGAWSG,0.6985 ± 0.0027
17,VVMTAVEGMWDG,0.5914 ± 0.0059
18,PLASRPHPLPPP,0.671 ± 0.02
19,HDPPPPPPLPRP,0.626 ± 0.024
20,KKYNNMRKHYVK,0.701 ± 0.02
21,GGGGRGVGRGWG,0.675 ± 0.0046
22,TFSIACIPSSHK,0.652 ± 0.025
23,KKKEKTSEEKKK,0.701 ± 0.029
24,LSPLPPPAGHLP,0.646 ± 0.096
25,NLRKGHSDERVV,0.691 ± 0.071
26,SLSPLPCTVLRL,0.684 ± 0.05

row,Sequence,protein stability index
1,RGVWWWWGVAGA,0.749 ± 0.17
2,PSPPDTDTPIPL,0.691 ± 0.034
3,ISYYDVYLSFLF,0.745 ± 0.13
4,NKHDGRKWARYK,0.6494 ± 0.00069
5,VQRFLGSCPLSI,0.611 ± 0.051
6,SIVESRGRGFRL,0.697 ± 0.18
7,GRYLGARRGRAF,0.68 ± 0.078
8,LLPFDTYPPTSP,0.695 ± 0.036
9,CYFKTIYRNMEY,0.541 ± 0.032
10,HTPPLPPPPDPT,0.723 ± 0.061
11,PPCTSTTQRANP,0.696 ± 0.073
12,YTPSGHKRRMYV,0.642 ± 0.064
13,VSHCLLRAFSDC,0.556 ± 0.011
14,PPLVSPPPPLPP,0.62 ± 0.015
15,KCPPQKRPTLIQ,0.679 ± 0.098
16,TVAPNFIPTSTS,0.662 ± 0.044
17,PLPPHRLPNPRL,0.784 ± 0.011
18,KKGKIKKFIIKK,0.694 ± 0.17
19,SPTRALYISFFY,0.655 ± 0.075
20,LTVVGGVVGKVG,0.689 ± 0.037
21,CFLFLTVSSREG,0.534 ± 0.03
22,KKKEGRMKQIYE,0.688 ± 0.0088
23,PCPPARSSLALS,0.636 ± 0.051
24,PSPASPTPPLVQ,0.682 ± 0.067
25,PPPAPPLSPPPH,0.653 ± 0.038
26,SWHTSRPPPPPF,0.656 ± 0.013

row,Sequence,protein stability index
1,ICGAGPKCCCSV,0.635 ± 0.051
2,WAGGGRVDDGGG,0.643 ± 0.059
3,PRLPPPSPPPLP,0.735 ± 0.01
4,ATYNRPPPPGLD,0.682 ± 0.068
5,EKKRERRRERKE,0.65 ± 0.091
6,PPSLLPAPQLPP,0.757 ± 0.066
7,VPFPFLPPSPSL,0.87 ± 0.14
8,RVSVSWDDGVMV,0.652 ± 0.0088
9,KTTTQRQEETAE,0.605 ± 0.033
10,LRRSPPNPLLKA,0.634 ± 0.021
11,LFLELSSCVGVF,0.62 ± 0.024
12,SPSRPILRPRVV,0.635 ± 0.02
13,GFTGGGRRWLGG,0.713 ± 0.056
14,TEREAKKKKSKI,0.704 ± 0.026
15,GRSVSGYGSFID,0.686 ± 0.017
16,LEGNRGYKRNGK,0.637 ± 0.084
17,TPPPHNRTKTTT,0.682 ± 0.072
18,RTCPSPSAHLRL,0.741 ± 0.0085
19,LIPTIRRKHRAT,0.625 ± 0.014
20,GSERGGRSRGRG,0.665 ± 0.0059
21,VGGVWWGGWGHW,0.733 ± 0.039
22,SHAGTEAGPGWM,0.782 ± 0.2
23,PPPPSPPATPAP,0.652 ± 0.015
24,EVFGAGRNDPGS,0.689 ± 0.018
25,PAPAPPPPAVPL,0.612 ± 0.018
26,GGGSGGEAVRVW,0.645 ± 0.026

row,Sequence,protein stability index
1,LHRRIPFPTQAL,0.567 ± 0.017
2,RTLNILCGGALR,0.691 ± 0.049
3,RGRGRVRPRRKR,0.6831 ± 0.0011
4,RADLLQRGGDRI,0.677 ± 0.093
5,KKKKKKVKNTKE,0.698 ± 0.047
6,DFWSEFILLCSV,0.6019 ± 0.0039
7,AAPRGRGRFAAA,0.699 ± 0.024
8,FSVGGLVDGRLW,0.79 ± 0.026
9,PPPPLLPTPRPF,0.682 ± 0.039
10,KILRRIFRNGGA,0.615 ± 0.062
11,WRGGWAETGGRE,0.705 ± 0.013
12,PAYLMDRGYIMT,0.613 ± 0.031
13,RGGAGRRWGRGK,0.631 ± 0.073
14,SAGARIRPADAL,0.6801 ± 0.0022
15,RPLYPGSKVQLL,0.691 ± 0.024
16,DHSAPIIPMMKV,0.6239 ± 0.0058
17,GQVAKVKVRKKK,0.755 ± 0.052
18,CMFSSTSSTNVN,0.731 ± 0.085
19,PAPPSPPPPLYP,0.721 ± 0.046
20,GSCGWCGVARWG,0.762 ± 0.05
